According to patent publication US10801046B2, “Methods and materials for biosynthesizing multifunctional, multivariate molecules via carbon chain modification” (INVISTA NORTH AMERICA S.A.R.L., priority 2016, dated 2020):

B1: 14 TE: Paenibacillus lactis thioesterase (protein)
chain: MVEKWTETYTIQSVDADFRGDCRWSSLLSIMQRAADKHIEALGIDREEMIERGLGWMLITLEADMTSIPRDMETIHVETWSRGSKGVLWHRDYRIMNDHGEQVGGARSVWTLVDIQKRKILRPSMFPYDVPIGQDSVGELPSKAVLPEGIELGEAYTTVVRYSGIDVNGHLNNARYADLCMDVLDEPELQGDKVTGFKITYNHEARLKDTIIVRRSGEIEGRIFVQGVSPEGTNFFEAALVKRKQ
modifications: Paenibacillus lactis 154
notes: Paenibacillus lactis thioesterase
B2: 5TE: Lactobacillus brevis thioesterase (protein)
chain: MAANEFSETHRVVYYEADDTGQLTLAMLINLFVLVSEDQNDALGLSTAFVQSHGVGWVVTQYHLHIDELPRTGAQVTIKTRATAYNRYFAYREYWLLDDAGQVLAYGEGIWVTMSYATRKITTIPAEVMAPYHSEEQTRLPRLPRPDHFDEAVNQTLKPYTVRYFDIDGNGHVNNAHYFDWMLDVLPATFLRAHHPTDVKIRFENEVQYGHQVTSELSQAAALTTQHMIKVGDLTAVKATIQWDNR
modifications: Lactobacillus brevis (strain ATCC 367 / JCM 1170)
notes: Lactobacillus brevis thioesterase
B3: 6TE: Lactobacillus delbrueckii thioesterase (protein, listed as Lactobacillus delbrueckii)
chain: MRYYKDYQLKYVDCGESGQLKLPRMIDLMMESSEGQLAPTLGGASAMKERGRGWVVTQYEFEFTSLPRAGQKVRVWTEAVGYNRFLSYRDFGIEDEAGKDLVIAHSQWVLFDLKSRKLLPSDDKIAEELGAPLLAKIPRFKKLRPKDDYKDEKVYRAYYYDLDSNHHVNNAHYLDWIVDSLPRDFVNSHEPKDLAIKFDKEIKYGDEVVCQVMQETEDSAVKTCHAITRQGELMALCEVNWQKMCFNRD
B4: SEQ ID NO: 119: Escherichia coli aminotransferase, gene product of ygjG (protein)
chain: MNRLPSSASALACSAHALNLIEKRTLDHEEMKALNREVIEYFKEHVNPGFLEYRKSVTAGGDYGAVEWQAGSLNTLVDTQGQEFIDCLGGFGIFNVGHRNPVVVSAVQNQLAKQPLHSQELLDPLRAMLAKTLAALTPGKLKYSFFCNSGTESVEAALKLAKAYQSPRGKFTFIATSGAFHGKSLGALSATAKSTFRKPFMPLLPGFRHVPFGNIEAMRTALNECKKTGDDVAAVILEPIQGEGGVILPPPGYLTAVRKLCDEFGALMILDEVQTGMGRTGKMFACEHENVQPDILCLAKALGGGVMPIGATIATEEVFSVLFDNPFLHTTTFGGNPLACAAALATINVLLEQNLPAQAEQKGDMLLDGFRQLAREYPDLVQEARGKGMLMAIEFVDNEIGYNFASEMFRQRVLVAGTLNNAKTIRIEPPLTLTIEQCELVIKAARKALAAMRVSVEEA
modifications: Escherichia coli (strain K12)
notes: Escherichia coli aminotransferase, gene product of ygjG
B5: SEQ ID NO: 125: Pseudomonas aeruginosa aminotransferase (protein, listed as Pseudomonas aeruginosa)
chain: MNARLHATSPLGDADLVRADQAHYMHGYHVFDDHRVNGSLNIAAGDGAYIYDTAGNRYLDAVGGMWCTNIGLGREEMARTVAEQTRLLAYSNPFCDMANPRAIELCRKLAELAPGDLDHVFLTTGGSTAVDTAIRLMHYYQNCRGKRAKKHVITRINAYHGSTFLGMSLGGKSADRPAEFDFLDERIHHLACPYYYRAPEGLGEAEFLDGLVDEFERKILELGADRVGAFISEPVFGSGGVIVPPAGYHRRMWELCQRYDVLYISDEVVTSFGRLGHFFASQAVFGVQPDIILTAKGLTSGYQPLGACIFSRRIWEVIAEPDKGRCFSHGFTYSGHPVACAAALKNIEIIEREGLLAHADEVGRYFEERLQSLRDLPIVGDVRGMRFMACVEFVADKASKALFPESLNIGEWVHLRAQKRGLLVRPIVHLNVMSPPLILTREQVDTVVRVLRESIEETVEDLVRAGHR
modifications: Pseudomonas aeruginosa (strain ATCC 15692 / DSM 22644 / CIP 104116 / JCM 14847 / LMG 12228 / 1C / PRS 101 / PAO1)
notes: Pseudomonas aeruginosa aminotransferase
B6: 11TE: Bacillus coagulans thioesterase (protein)
chain: MANGSSLYKGQYHIELRDVDFTKKLKLSALFSLFQDIASLAAEDLGYGIETLEKKYKVAWILTRIRVDILRHPTWDENITIETWPLQPSKIDFDRDFLVKDHTGAVIIKAASKWVVMGLNDRKIKRTESINIHYPENRTERAIEGKFGKFKDFGGLEPAYQKVIGYSDIDFNGHLNNSKYVDYIMDCFLPDFHKRHPIHTIEINFNQEALPGDSITLYKDISKMDEHELYVEGVNQTDHHTIFKSHITIH
modifications: Bacillus coagulans (strain 2-6)
notes: Bacillus coagulans thioesterase

How the values were obtained:
[1] = test system: heptanedioyl-[acp] or heptanedioyl-[acp] methyl ester; assay: Thioesterase enzyme activity assay, release of holo-ACP monitored by absorbance at 412 nm; type: biochemical; conditions: purified thioesterase, 37° C., 30 min, FIG. 41
Procedure: The thioesterases were expressed and purified following procedures disclosed herein. The enzyme activity assay was performed in duplicate or triplicate in a buffer having heptanedioyl-[acp] or heptanedioyl-[acp] methyl ester as substrate. The enzyme activity assay reaction was initiated by adding purified thioesterase gene products to the assay buffer and incubating at 37° C. for 30 min. The release of holo-ACP was monitored by absorbance at 412 nm. The absorbance associated with the empty vector control is very low. Many of the gene products of thioesterases accepted heptanedioyl-[acp] or heptanedioyl-[acp] methyl ester as substrate as confirmed via relative spectrophotometry (see FIG. 41).

[2] = Aminotransferase activity, N7-acetyl-1,7-diaminoheptane to N7-acetyl-7-aminoheptanal, L-alanine formation by RP-HPLC; type: biochemical; conditions: cell free extract, 10 mM substrate, 25° C., 4 h, against empty vector control, FIG. 51
Procedure: The activity of the N-terminal His-tagged aminotransferases of SEQ ID NOs: 116 (GenBank Accession No. AAQ59697.1), 119 (RefSeq Accession No. NP_417544.5), 125 (GenBank Accession No. AAGO8191.1), 126 (GenBank Accession No. AAY39893.1), 127 (GenBank Accession No. ABA81135.1), and 128 (GenBank Accession No. AEA39183.1) (see Example 6) for converting N7-acetyl-1,7-diaminoheptane to N7-acetyl-7-aminoheptanal was assayed using a buffer composed of a final concentration of 50 mM HEPES buffer (pH=7.5), 10 mM N7-acetyl-1,7-diaminoheptane, 10 mM pyruvate and 100 μM pyridoxyl 5′ phosphate. Each enzyme activity assay reaction was initiated by adding a cell free extract of the aminotransferases or the empty vector control to the assay buffer containing the N7-acetyl-1,7-diaminoheptane then incubated at 25° C. for 4 h, with shaking at 250 rpm. The formation of L-alanine was quantified via RP-HPLC.

[3] = Aminotransferase activity, heptane-1,7-diamine to 7-aminoheptanal, L-alanine formation by RP-HPLC; type: biochemical; conditions: cell free extract, 10 mM substrate, 25° C., 4 h, against empty vector control, FIG. 50
Procedure: A sequence encoding an N-terminal His-tag was added to the Chromobacterium violaceum, Pseudomonas aeruginosa, Pseudomonas syringae, Rhodobacter sphaeroides, Escherichia coli, and Vibrio fluvialis genes encoding the aminotransferases of SEQ ID NOs: 116 (GenBank Accession No. AAQ59697.1), 119 (RefSeq Accession No. NP_417544.5), 125 (GenBank Accession No. AAGO8191.1), 126 (GenBank Accession No. AAY39893.1), 127 (GenBank Accession No. ABA81135.1), and 128 (GenBank Accession No. AEA39183.1), respectively such that N-terminal HIS tagged aminotransferases could be produced. The modified genes were cloned into a pET21a expression vector under the T7 promoter. Each expression vector was transformed into a BL21[DE3] E. coli host. Each resulting recombinant E. coli strain were cultivated at 37° C. in a 250 mL shake flask culture containing 50 mL LB media and antibiotic selection pressure, with shaking at 230 rpm. Each culture was induced overnight at 16° C. using 1 mM IPTG.
The pellet from each induced shake flask culture was harvested via centrifugation. Each pellet was resuspended and lysed via sonication. The cell debris was separated from the supernatant via centrifugation and the cell free extract was used immediately in enzyme activity assays.
Enzyme activity assays in the reverse direction (i.e., heptane-1,7-diamine to 7-aminoheptanal) were performed in a buffer composed of a final concentration of 50 mM HEPES buffer (pH=7.5), 10 mM heptane-1,7-diamine, 10 mM pyruvate, and 100 μM pyridoxyl 5′ phosphate. Each enzyme activity assay reaction was initiated by adding cell free extract of the aminotransferase gene product or the empty vector control to the assay buffer containing the heptane-1,7-diamine and then incubated at 25° C. for 4 h, with shaking at 250 rpm. The formation of L-alanine was quantified via RP-HPLC.

heptanedioyl-ACP = type: cell-based, Escherichia coli; conditions: top 150 hits screened in vivo

Row | Molecule | synthesis of holo-ACP using heptanedioyl-[acp] methyl ester as substrate, compared to using heptanedioyl-[acp] as substrate [1] | acceptance of N7-acetyl-1,7-diaminoheptane as substrate, forming N7-acetyl-7-aminoheptanal [2] | acceptance of heptane-1,7-diamine as substrate, forming 7-aminoheptanal [3] | activity toward heptanedioyl-ACP in vivo (heptanedioyl-ACP)
1 | B1 | more efficiently |  |  | 
2 | B2 | more efficiently |  |  | 
3 | B3 | more efficiently |  |  | 
4 | B4 |  | accepted N7-acetyl-1,7-diaminoheptane as a substrate | accepted heptane-1,7-diamine as substrate | 
5 | B5 |  | accepted N7-acetyl-1,7-diaminoheptane as a substrate | accepted heptane-1,7-diamine as substrate | 
6 | B6 | more efficiently |  |  | displayed considerable activity toward heptanedioyl-ACP
